Assay results taken from IntAct's records for PubMed 11739743.

B1: Cell cycle protein kinase spo4 (Schizosaccharomyces pombe (strain ATCC 38366 / 972)), Q9UQY9 (parent)
chain: MLSMLLPFGNSGVYASDVDREDRPEIAKLVQAFPTIEEDYHVVKLVGAGSFSSVFKAVDRHFDSYDNSYWISSQIEDQMPHDKTKRPKNHFVALKRIYATVLPSRIQTELEMLHELRGSDCVLNMITAVRHQDQVLIVLPFIQHAEFRDFYMKYSLPEIGAYLRDLLKGLAHIDAKGIIHRDIKPGNFAWNPYTQRGVILDFGLAQWQEADAPTENCCVDKLRKLKQEGKYYDYFPFEKTIADPPEGYLLHDPRPTKRADRAGTRGFRAPEVLFRCQNQTSSIDVWSVGVILLCFLTHRYPFFRCEDDIDAIVELAHIFGRNGMSNCALLHGQIWSDNIPTLLDQKHNWLDLIASITKNDENLILETSSDYQVALAIDLLDKLLELHPSKRVKAKTALQHEFFNACGVTRSGFEAENPFRSDFPSTVEQ
partner: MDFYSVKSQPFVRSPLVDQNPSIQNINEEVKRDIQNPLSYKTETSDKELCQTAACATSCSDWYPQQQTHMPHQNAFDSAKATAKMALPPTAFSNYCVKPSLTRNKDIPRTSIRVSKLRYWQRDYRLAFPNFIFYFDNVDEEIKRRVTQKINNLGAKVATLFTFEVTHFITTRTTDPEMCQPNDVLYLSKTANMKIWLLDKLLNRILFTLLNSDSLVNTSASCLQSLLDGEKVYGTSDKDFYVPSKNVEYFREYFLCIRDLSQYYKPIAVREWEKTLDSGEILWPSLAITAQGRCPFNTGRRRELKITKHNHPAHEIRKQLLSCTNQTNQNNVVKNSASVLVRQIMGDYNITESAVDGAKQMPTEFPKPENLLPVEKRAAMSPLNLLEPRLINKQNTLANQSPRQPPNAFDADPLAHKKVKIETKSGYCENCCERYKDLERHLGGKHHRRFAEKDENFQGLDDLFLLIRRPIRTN

Variants of: B1
Conditions: with spo6_schpo spo6, Q9Y7J1

| Variant | effect of a mutation on the interaction |
| --- | --- |
| K95A | with no effect |
